Laboratory results taken from patent publication US20110229465A1, “COMPOSITION FOR TREATING DISEASE” (priority 2008, published 2011).

What was measured:
Treg cells = conditions: in vitro 50 nM MTX (highest concentration analyzed); reduced from 94%, p<0.05; cited from earlier work
[1] = test system: CD4+CD25+ regulatory T cells; assay: in vitro proliferation assay with freshly isolated CD4+CD25+ regulatory T cells; format: cell-based, human
Procedure: 50 ml EDTA blood specimens were obtained from healthy control donors. Peripheral blood mononuclear cells (PBMCs), regulatory T cells (Tregs) and T helper cells as T responder cells (Tresps) were isolated from peripheral blood samples as previously described (Haas et al., 2007).
Freshly isolated Tregs were pre-incubated for 48 hours with 1 μg/ml plate bound antibody (BT061), 1 μg/ml soluble BT061 or Medium.
Freshly isolated Tregs (2.5×10^4, donor A) obtained from 2 donors (Exp. 1 and Exp. 2) were pre-incubated for 48 hours with either 1 μg/ml soluble or plate bound BT061. To achieve allogeneic stimulation the 2.5×10^4 pre-incubated Tregs were then transferred to 1×10^5 T cells as responder cells (Tresps) from a second donor (donor B) in the presence of 2×10^5 T cell depleted and irradiated (30 Gray) PBMCs (donor A). After 4 days of stimulation 1 μCi [3H] thymidine per well was added and proliferation was measured after additional 16 hours.
The percentage of Treg mediated inhibition of Tresp proliferation is shown in FIG. 1 as the percent suppression of proliferation of Tresps incubated with PBMC in the absence of Tregs. Results are shown for the Tregs obtained from the two donors (Exp. 1 and Exp. 2). […]

[2] = test system: rheumatoid arthritis patients; assay: monotherapy trial of BT061 in rheumatoid arthritis patients, ACR improvements; format: in vivo, human; conditions: week 7, blinded data from 8 individuals (2 placebo, six BT061)
Text: This system defines a value of ACR 20 as an at least 20% improvement in tender and swollen joint counts and at least 20% improvement in 3 of the 5 remaining ACR core set measures: patient and physician global assessments, pain, disability, and an acute phase reactant, such as C-reactive protein (CRP) or Erythrocyte Sedimentation Rate (ESR). Similarly, ACR 50 and ACR 70 scores define an at least 50% and an at least 70% improvement, respectively.
As indicated above, in one aspect of the invention the agent and/or methotrexate are administered subcutaneously. In general, as is known in the art, subcutaneous doses need to be larger than intravenous doses in order to achieve the equivalent therapeutic effect.

[3] = plasma levels of BT061 after intravenous administration in healthy volunteers; format: in vivo, human; conditions: range in three volunteers
Text: This is considered to reflect a faster target mediated clearance.

[4] = 2 mg i.v. once weekly for six weeks
[5] = 50 mg s.c. once weekly for six weeks

Q: Which “suppressive activity of Treg cells” value (Treg cells) does the source give for `CN(Cc1cnc2nc(N)nc(N)c2n1)c1ccc(C(=O)N[C@@H](CCC(=O)O)C(=O)O)cc1` [MTX, 4-amino-N10-methylpteroyl glutamic acid] here?
A: Its value is 88%.

B1: BT061: humanized anti-CD4 antibody derived from mouse B-F5, V domains SEQ ID NO: 1 and 2, activates CD4+CD25+ regulatory T cells (antibody, V domains shown)
VH: EEQLVESGGGLVKPGGSLRLSCAASGFSFSDCRMYWLRQAPGKGLEWIGVISVKSENYGANYAESVRGRFTISRDDSKNTVYLQMNSLKTEDTAVYYCSASYYRYDVGAWFAYWGQGTLVTVSS
VL: DIVMTQSPDSLAVSLGERATINCRASKSVSTSGYSYIYWYQQKPGQPPKLLIYLASILESGVPDRFSGSGSGTDFTLTISSLQAEDVAVYYCQHSRELPWTFGQGTKVEIK
modifications: V domain of H chain of humanized antibody hB-F5H37L; V domain of K chain of humanized antibody hB-F5L4M
Q: Which results are given for B1?
A: Treg mediated suppression of Tresp proliferation ([1]; Tregs pre-incubated 48 hours with 1 μg/ml plate bound BT061, versus medium alone): able to reduce average proliferative responses of allogeneic stimulated Tresps; Treg mediated suppression of Tresp proliferation ([1]; Tregs pre-incubated 48 hours with 1 μg/ml soluble BT061, versus medium alone): able to reduce average proliferative responses of allogeneic stimulated Tresps; percentage of patients showing ACR20 [2, 4]: 50%; percentage of patients showing ACR50 [2, 4]: 25%; percentage of patients showing ACR70 [2, 4]: 12.5%; percentage of patients showing ACR20 [2, 5]: 50%; percentage of patients showing ACR50 [2, 5]: 25%; percentage of patients showing ACR70 [2, 5]: 12.5%; plasma level, conc. 3 h post end of infusion ([3]; dosage 2.5 mg intravenous): 0 µg/mL; plasma level, effective cmax (post end of infusion) ([3]; dosage 2.5 mg intravenous): 0.06 to 0.14 µg/mL; plasma level, conc. 3 h post end of infusion ([3]; dosage 5 mg intravenous): 0.09 to 0.16 µg/mL; plasma level, effective cmax (post end of infusion) ([3]; dosage 5 mg intravenous): 0.32 to 0.44 µg/mL; plasma level, conc. 3 h post end of infusion ([3]; dosage 10 mg intravenous): 0.46 to 1.4 µg/mL; plasma level, effective cmax (post end of infusion) ([3]; dosage 10 mg intravenous): 0.8 to 2.0 µg/mL; plasma level, conc. 3 h post end of infusion ([3]; dosage 20 mg intravenous): 1.7 to 3.3 µg/mL; plasma level, effective cmax (post end of infusion) ([3]; dosage 20 mg intravenous): 2.3 to 4.1 µg/mL; plasma level, conc. 3 h post end of infusion ([3]; dosage 40 mg intravenous): 4.4 to 6.1 µg/mL; plasma level, effective cmax (post end of infusion) ([3]; dosage 40 mg intravenous): 5.9 to 6.5 µg/mL; plasma level, conc. 3 h post end of infusion ([3]; dosage 60 mg intravenous): 7.7 to 11.08 µg/mL; plasma level, effective cmax (post end of infusion) ([3]; dosage 60 mg intravenous): 8.9 to 15.1 µg/mL
